Reference: publication PMC5387316, “Distinctive molecular and biochemical characteristics of a glycoside hydrolase family 20 β-N-acetylglucosaminidase and salt tolerance” (BMC Biotechnology, 2017)

T1: rHJ5Nag (Microbacterium sp. HJ5, UniProt A0A1W6AQA7)
T1 construct: pEASY-E2 in E. coli BL21 (DE3), purified on Ni-NTA
T1 sequence (A0A1W6AQA7 21-535): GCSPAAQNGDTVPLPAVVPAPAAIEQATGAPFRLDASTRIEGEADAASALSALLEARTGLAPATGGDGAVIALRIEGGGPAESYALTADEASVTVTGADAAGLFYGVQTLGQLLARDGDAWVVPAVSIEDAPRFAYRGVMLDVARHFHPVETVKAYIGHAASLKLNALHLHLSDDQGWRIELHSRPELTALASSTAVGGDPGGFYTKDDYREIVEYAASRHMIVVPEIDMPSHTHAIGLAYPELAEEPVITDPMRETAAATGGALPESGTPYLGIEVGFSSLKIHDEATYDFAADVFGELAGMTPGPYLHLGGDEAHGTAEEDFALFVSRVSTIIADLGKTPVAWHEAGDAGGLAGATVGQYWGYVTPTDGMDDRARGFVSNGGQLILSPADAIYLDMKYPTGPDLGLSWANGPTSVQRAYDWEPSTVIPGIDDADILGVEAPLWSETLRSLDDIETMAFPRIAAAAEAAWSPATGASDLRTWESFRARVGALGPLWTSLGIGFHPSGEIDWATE


Assays:
[1] = target: T1, rHJ5Nag; test: pNP release assay, nonlinear mixed-model inhibition fit; format: biochemical; settings: 0.1-1.2 mM pNPGlcNAc; pH 6.0; 45 °C; mixed competitive and noncompetitive inhibition (alpha 3.412); product inhibitor at 5.0 and 10.0 mM
[2] = substrate: CC(=O)N[C@H]1[C@H](Oc2ccc([N+](=O)[O-])cc2)O[C@H](CO)[C@@H](O)[C@@H]1O; test: pNP release assay, nonlinear Michaelis-Menten fit; format: biochemical, Microbacterium sp. HJ5; settings: pH 6.0, 45 °C, McIlvaine buffer, without added GlcNAc

Row | Molecule | Ki [1] | Km [2] | kcat [2]
1 | CC(=O)N[C@H]1C(O)O[C@H](CO)[C@@H](O)[C@@H]1O (stereo partly drawn) [N-acetylglucosamine] | 14.6 mM |  | 
2 | rHJ5Nag (Microbacterium sp. HJ5) (protein, pEASY-E2 in E. coli BL21 (DE3), purified on Ni-NTA) GCSPAAQNGDTVPLPAVVPAPAAIEQATGAPFRLDASTRIEGEADAASALSALLEARTGLAPATGGDGAVIALRIEGGGPAESYALTADEASVTVTGADAAGLFYGVQTLGQLLARDGDAWVVPAVSIEDAPRFAYRGVMLDVARHFHPVETVKAYIGHAASLKLNALHLHLSDDQGWRIELHSRPELTALASSTAVGGDPGGFYTKDDYREIVEYAASRHMIVVPEIDMPSHTHAIGLAYPELAEEPVITDPMRETAAATGGALPESGTPYLGIEVGFSSLKIHDEATYDFAADVFGELAGMTPGPYLHLGGDEAHGTAEEDFALFVSRVSTIIADLGKTPVAWHEAGDAGGLAGATVGQYWGYVTPTDGMDDRARGFVSNGGQLILSPADAIYLDMKYPTGPDLGLSWANGPTSVQRAYDWEPSTVIPGIDDADILGVEAPLWSETLRSLDDIETMAFPRIAAAAEAAWSPATGASDLRTWESFRARVGALGPLWTSLGIGFHPSGEIDWATE |  | 520 ± 50 µM | 2886 ± 116 s⁻¹
